{
  "source": "patent US20250313648A1",
  "about": "(REGENTS OF THE UNIVERSITY OF MINNESOTA, published 2025)",
  "binders": {"B1": {"name": "anti-CSPG4 antibody 8G5A6 (antibody, V domains shown)", "VH": "EVQLQQSGPDLVKPGASVKISCKASGYSFTVYYMNWVKQSHGKSLEWIGRIDPNDGGASYNQKFKGKAILTVDKSSGTAYMELRSLTSEDSAVYYCARRDYYGSKDYWGQGTTLTVSS", "VL": "not shown"}, "B2": {"name": "CSPG4-specific mouse monoclonal antibody 7H5A2 (antibody, IgG1, V domains shown)", "VH": "QVQLQQSGAELVRPGSSVKISCKASGFAFSNYWMNWVKQRPGQGLEWIGQIFPGDGDTNYNGKFKGKATLTADKSSSTAYMQLISLTSEDSAVYFCVRESDWGRGTTLTVSS", "VL": "DIQMTQTTSSLSASLGDRVTISCSASQGINNYLNWYQQTPDGTVKLLIFYTSSLQSGVPSRFSGSGSGTDYSLTISNLEPEDIATYYCQQYSKLPFTFGSGTKLEIKR", "notes": "also called anti-CSPG4 antibody 7H5A2"}},
  "key": {"[1]": {"biological_target": "T1, chondroitin sulfate proteoglycan 4 (CSPG4) (human, UniProt Q6UVK1 30-2322)", "T1 construct": "whole, on cells; Endogenous full-length CSPG4 of human ovarian cancer cell lines, on the cell surface or in cell lysates for western blot; also called CSPG4 core protein", "T1 sequence (Q6UVK1 30-2322)": "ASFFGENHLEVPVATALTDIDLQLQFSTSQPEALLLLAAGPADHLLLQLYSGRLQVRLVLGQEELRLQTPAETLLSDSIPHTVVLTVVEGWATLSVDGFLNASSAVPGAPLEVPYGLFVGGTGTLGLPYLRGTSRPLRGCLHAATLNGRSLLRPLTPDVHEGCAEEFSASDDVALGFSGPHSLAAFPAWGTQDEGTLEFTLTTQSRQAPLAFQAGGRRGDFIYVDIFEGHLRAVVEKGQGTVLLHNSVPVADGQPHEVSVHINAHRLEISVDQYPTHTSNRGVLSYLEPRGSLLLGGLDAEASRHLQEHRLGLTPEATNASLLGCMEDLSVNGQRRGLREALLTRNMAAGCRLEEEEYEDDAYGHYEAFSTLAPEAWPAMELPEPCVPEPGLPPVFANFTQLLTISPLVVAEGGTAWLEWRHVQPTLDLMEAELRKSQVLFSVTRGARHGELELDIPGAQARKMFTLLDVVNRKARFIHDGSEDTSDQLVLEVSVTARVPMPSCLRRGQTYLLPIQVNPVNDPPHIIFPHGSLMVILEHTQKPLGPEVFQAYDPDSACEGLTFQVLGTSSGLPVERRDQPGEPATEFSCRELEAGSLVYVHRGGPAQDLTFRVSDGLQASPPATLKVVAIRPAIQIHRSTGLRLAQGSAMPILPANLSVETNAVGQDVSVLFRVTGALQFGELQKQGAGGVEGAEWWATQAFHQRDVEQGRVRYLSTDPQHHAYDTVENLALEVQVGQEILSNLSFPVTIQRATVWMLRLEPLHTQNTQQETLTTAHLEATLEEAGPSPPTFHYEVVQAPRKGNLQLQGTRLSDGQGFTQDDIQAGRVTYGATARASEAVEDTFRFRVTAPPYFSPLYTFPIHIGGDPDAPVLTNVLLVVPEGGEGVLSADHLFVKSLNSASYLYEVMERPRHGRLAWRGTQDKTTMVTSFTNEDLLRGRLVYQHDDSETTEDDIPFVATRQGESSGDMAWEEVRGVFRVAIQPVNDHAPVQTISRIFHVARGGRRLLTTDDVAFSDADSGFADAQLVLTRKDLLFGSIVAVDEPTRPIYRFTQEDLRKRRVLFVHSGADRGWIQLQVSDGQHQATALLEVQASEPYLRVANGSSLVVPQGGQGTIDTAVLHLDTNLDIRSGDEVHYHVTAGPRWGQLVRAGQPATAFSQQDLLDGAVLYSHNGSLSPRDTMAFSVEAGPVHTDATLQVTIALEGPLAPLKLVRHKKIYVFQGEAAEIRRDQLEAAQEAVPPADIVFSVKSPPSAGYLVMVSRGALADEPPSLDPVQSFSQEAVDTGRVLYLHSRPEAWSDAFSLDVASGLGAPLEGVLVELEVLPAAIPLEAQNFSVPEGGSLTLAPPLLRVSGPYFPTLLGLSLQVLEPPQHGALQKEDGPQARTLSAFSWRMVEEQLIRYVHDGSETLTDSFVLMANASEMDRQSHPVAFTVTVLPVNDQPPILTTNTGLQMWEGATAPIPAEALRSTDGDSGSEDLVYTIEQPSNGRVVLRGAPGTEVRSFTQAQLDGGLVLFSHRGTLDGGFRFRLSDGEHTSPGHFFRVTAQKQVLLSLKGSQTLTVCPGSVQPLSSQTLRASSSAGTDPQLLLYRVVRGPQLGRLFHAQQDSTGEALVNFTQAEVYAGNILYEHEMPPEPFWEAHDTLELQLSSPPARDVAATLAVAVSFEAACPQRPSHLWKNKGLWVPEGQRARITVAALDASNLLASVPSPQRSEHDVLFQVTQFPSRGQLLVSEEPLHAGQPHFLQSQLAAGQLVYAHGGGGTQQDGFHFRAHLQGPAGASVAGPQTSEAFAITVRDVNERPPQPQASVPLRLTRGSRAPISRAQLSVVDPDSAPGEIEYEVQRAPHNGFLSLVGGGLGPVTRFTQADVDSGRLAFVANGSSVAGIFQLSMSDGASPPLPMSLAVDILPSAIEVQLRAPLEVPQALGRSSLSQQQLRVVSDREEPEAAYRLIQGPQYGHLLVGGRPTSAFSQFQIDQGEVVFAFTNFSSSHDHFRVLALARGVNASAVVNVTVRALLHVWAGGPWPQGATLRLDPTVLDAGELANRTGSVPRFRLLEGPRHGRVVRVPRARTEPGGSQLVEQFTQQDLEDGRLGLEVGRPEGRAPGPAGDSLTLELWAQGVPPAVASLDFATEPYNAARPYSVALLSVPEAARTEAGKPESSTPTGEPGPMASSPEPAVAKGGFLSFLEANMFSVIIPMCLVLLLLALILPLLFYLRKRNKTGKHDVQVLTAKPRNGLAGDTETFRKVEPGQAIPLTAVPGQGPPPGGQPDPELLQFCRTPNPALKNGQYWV", "experiment": "identified by the methods of Example 6 (hybridoma raised against the CSPG4 fragment)"}, "[2]": {"biological_target": "T1, chondroitin sulfate proteoglycan 4 …", "experiment": "western blot on mock and CSPG4-CRISPR cell lysates; immunofluorescence of cells", "description": "FIGS. 1A-1D. Antibody 7H5A2 targets CSPG4. FIG. 1A) Amino acid sequence of recombinant protein target used to generate antibody 7H5A2 (SEQ ID NO:34). Black text denotes CSPG4 region (SEQ ID NO:33), the lighter gray text corresponds to human FC sequence for protein purification. […] Cells are harvested in lysis buffer and 40 μg protein was loaded in each well from the indicated mock and CSPG4-CRISPR cell lines. Alpha-tubulin is included as a loading control. FIG. 1D) Immunofluorescence staining of HEY parent cells with antibody 7H5A2. Red bar=10 μm. Magnification 600×.\nGeneration of novel CSPG4 antibody: CSPG4-specific mouse monoclonal antibody 7H5A2 was generated by Promab Biotechnologies Inc (Richmond, CA) by injection of a recombinant CSPG4 protein immunogen corresponding to aa 1538-2221 of the CSPG4 core protein extracellular domain, expressed and purified from a eukaryotic expression system (see FIG. 1A). The specificity of the antibody was determined by screening against CSPG4 wild type and knockout cell lysates via western blot and cell staining via immunofluorescence (see FIGS. 1B and 1C). 7H5A2 is isotype IgG1."}},
  "data": [
    {"binder": "B1", "values": [
      {"measurement": "binding result", "setting": "[1]", "result": "binds"}
    ]},
    {"binder": "B2", "values": [
      {"measurement": "binding result", "setting": "[2]", "result": "binds"}
    ]}
  ]
}
